Measurements reported in article PMC2914181 (Biochemical and biophysical research communications, 2009).

Target: the molecule itself
Experiment: SEC

B1: Campylobacter jejuni β-hydroxyacyl-ACP dehydratase (FabZ) (enzyme, Campylobacter jejuni strain 81-176, UniProt Q9PIM2 1-146, looked up)
chain: MIDVMQIQEILPHRYPFLLVDKITELKVKEVVLGYKNISISDHVFMGHFPGHPIYPGVLILEGMAQTGGVLAFESMEDKVDPKSKVVYFTGIDGAKFRNPVRPGDRLDYEMSVVKNRGNMWIFKGQAFVDGNLVAEAELKAMIVDK
In the case of B1, the “stoichiometry N” value is reported as 6.
